Tests used:
[1] = molecular target: T1, TLT-1 receptor on the surface of activated human platelets (human, UniProt Q86YW5 16-311); assay: flow cytometry on activated human platelets, detection: anti HPC4 tag ab.
T1 sequence: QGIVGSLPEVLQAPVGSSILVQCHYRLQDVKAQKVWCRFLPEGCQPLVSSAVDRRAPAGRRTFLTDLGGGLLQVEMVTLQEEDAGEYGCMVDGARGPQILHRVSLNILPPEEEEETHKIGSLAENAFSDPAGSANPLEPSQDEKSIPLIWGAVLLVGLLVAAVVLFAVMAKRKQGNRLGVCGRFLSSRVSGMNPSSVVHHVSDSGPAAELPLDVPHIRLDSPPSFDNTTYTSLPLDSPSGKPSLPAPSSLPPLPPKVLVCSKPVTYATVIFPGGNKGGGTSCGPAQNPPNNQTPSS

[2] = molecular target: T2, human fibrinogen (HCI-0150R, Haematologic Technologies) (human, UniProt P02671 20-629; P02675 31-491; P02679 27-437, limits assumed); assay: SPR (Biacore T100), TLT1 immobilised on CM5, fibrinogen as analyte
T2 construct: Chain composition is general knowledge
T2 sequence (looked up) 1: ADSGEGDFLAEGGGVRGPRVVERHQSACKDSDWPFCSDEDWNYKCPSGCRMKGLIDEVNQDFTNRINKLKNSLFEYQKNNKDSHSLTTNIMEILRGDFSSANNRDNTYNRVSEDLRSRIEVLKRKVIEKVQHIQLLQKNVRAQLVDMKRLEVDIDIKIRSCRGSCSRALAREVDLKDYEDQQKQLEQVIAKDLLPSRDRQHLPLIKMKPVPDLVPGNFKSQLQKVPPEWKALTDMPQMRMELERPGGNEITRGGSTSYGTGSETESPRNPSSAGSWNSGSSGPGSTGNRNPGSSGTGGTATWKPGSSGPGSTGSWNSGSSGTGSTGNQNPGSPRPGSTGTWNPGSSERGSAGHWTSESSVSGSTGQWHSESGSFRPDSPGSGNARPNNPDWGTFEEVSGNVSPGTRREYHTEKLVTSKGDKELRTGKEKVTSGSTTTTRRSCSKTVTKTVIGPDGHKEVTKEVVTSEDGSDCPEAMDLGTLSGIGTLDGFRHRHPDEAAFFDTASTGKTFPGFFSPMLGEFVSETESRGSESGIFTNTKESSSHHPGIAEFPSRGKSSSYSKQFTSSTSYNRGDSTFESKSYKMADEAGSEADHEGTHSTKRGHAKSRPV
T2 sequence (looked up) 2: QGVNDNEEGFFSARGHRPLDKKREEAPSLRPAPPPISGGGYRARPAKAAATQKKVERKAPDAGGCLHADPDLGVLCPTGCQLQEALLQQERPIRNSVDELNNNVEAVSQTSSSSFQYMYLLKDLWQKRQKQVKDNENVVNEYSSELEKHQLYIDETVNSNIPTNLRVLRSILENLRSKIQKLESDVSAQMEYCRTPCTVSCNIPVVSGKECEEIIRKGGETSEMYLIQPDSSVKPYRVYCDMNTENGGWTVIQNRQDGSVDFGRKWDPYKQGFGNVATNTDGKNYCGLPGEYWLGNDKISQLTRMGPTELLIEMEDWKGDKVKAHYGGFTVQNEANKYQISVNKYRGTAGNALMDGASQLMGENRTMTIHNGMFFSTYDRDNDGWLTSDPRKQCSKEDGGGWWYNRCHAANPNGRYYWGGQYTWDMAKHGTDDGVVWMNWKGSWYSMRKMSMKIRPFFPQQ
T2 sequence (looked up) 3: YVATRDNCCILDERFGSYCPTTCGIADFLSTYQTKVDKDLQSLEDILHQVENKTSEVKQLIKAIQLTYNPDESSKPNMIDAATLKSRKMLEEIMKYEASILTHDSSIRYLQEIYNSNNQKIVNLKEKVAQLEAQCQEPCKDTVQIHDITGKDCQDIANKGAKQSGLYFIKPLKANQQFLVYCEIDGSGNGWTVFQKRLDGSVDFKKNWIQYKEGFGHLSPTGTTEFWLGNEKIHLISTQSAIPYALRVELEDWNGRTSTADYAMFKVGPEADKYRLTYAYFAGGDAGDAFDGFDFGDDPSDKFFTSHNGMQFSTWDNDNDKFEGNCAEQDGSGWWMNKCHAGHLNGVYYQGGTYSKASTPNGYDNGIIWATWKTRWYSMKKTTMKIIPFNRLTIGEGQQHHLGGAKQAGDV
Method: (§1) Human TLT1 was immobilised to a level of approx 1000 RU on a CM5 chip (50 μg/ml diluted in Na-acetate, pH 4.0) using the standard procedure recommended by the supplier. Four-fold dilutions of human fibrinogen from 200 nM to 0.2 nM were tested for binding to the immobilized TLT1. Running and dilution buffer: 10 mM HEPES, 150 mM, 0.005% p20, pH 7.4. Regeneration was obtained by 10 mM Glycine, pH 1.7. Determination of kinetic and binding constants (kₒₙ, koff, KD) was obtained assuming a 1:1 interaction of TLT1 and fibrinogen using the Biacore T100 evaluation software.

[3] = molecular target: T2, human fibrinogen (HCI-0150R, …); assay: SPR (Biacore T100), TLT1 immobilised on CM5, fibrinogen 200 nM to 0.2 nM as analyte
Method: as §1

[4] = molecular target: Fab-hTF.1-219 fusion proteins (those tested in FIG. 7)
[5] = molecular target: T3, hTF.1-219 (soluble tissue factor)
T3 chain: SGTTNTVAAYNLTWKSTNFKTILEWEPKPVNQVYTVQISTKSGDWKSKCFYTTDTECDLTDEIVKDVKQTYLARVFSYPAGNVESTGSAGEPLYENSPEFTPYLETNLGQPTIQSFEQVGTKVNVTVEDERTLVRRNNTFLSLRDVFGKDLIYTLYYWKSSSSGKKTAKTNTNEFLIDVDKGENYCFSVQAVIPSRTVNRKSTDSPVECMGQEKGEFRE

[6] = molecular target: mAb-hTF.1-219 fusion proteins (those tested in FIG. 7)
[7] = molecular target: T1, TLT-1 receptor on the surface of …; assay: cell-based or functional assay
[8] = molecular target: T4, TLT-1 18-188 relipidated in 20:80 PS:PC vesicles (human, UniProt Q86YW5 18-188); assay: cell-based or functional assay
T4 sequence: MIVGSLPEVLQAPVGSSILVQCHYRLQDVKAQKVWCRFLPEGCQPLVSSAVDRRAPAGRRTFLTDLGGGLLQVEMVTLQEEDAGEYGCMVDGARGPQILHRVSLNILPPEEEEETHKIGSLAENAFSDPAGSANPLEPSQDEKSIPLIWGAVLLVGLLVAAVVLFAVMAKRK

B1: Fab 0012-LC-HPC4; VH-CH1 (Fab)
heavy: EVKLLESGGGLVQPGGSLKLSCAASGFDFSRYWMTWVRQAPGKGLEWIGEINPDSSTINYTPSLKDKFIISRDNAKNTLYLQMSEVRSEDTALYYCASGVFTSWGQGTLVTVSAASTKGPSVFPLAPCSRSTSESTAALGCLVKDYFPEPVTVSWNSGALTSGVHTFPAVLQSSGLYSLSSVVTVPSSSLGTKTYTCNVDHKPSNTKVDKRVESK
light: DVVMTQTPLSLPVSLGDQASISCRSSQSLVHRNGNTYFHWCLQKPGQSPKLLIYKVSNRFSGVPDRFSGSGSGTDFTLKISRVEAEDLGVYFCSQSTHVPYTFGGGTKLEIKRTVAAPSVFIFPPSDEQLKSGTASVVCLLNNFYPREAKVQWKVDNALQSGNSQESVTEQDSKDSTYSLSSTLTLSKADYEKHKVYACEVTHQGLSSPVTKSFNRGECEDQVDPRLIDGK
notes: Anti-TLT-1 Fab without tissue factor; also called 0010; 0010 Fab
[1]
  binding result: binds

B2: TLT1 (human TLT-1, reagent of the SPR studies, source NN) (receptor)
chain: QGIVGSLPEVLQAPVGSSILVQCHYRLQDVKAQKVWCRFLPEGCQPLVSSAVDRRAPAGRRTFLTDLGGGLLQVEMVTLQEEDAGEYGCMVDGARGPQILHRVSLNILPPEEEEETHKIGSLAENAFSDPAGSANPLEPSQDEKSIP
[2]
  Kd: 94 nM
  koff: 0.000392 s⁻¹
[3]
  kon: 4170 M⁻¹ s⁻¹

B3: Factor VIIa (FVIIa) (protein)
chain: ANAFLEELRPGSLERECKEEQCSFEEAREIFKDAERTKLFWISYSDGDQCASSPCQNGGSCKDQLQSYICFCLPAFEGRNCETHKDDQLICVNENGGCEQYCSDHTGTKRSCRCHEGYSLLADGVSCTPTVEYPCGKIPILEKRNASKPQGRIVGGKVCPKGECPWQVLLLVNGAQLCGGTLINTIWVVSAAHCFDKIKNWRNLIAVLGEHDLSEHDGDEQSRRVAQVIIPSTYVPGTTNHDIALLRLHQPVVLTDHVVPLCLPERTFSERTLAFVRFSLVSGWGQLLDRGATALELMVLNVPRLMTQDCLQQSRKVGDSPNITEYMFCAGYSDGSKDSCKGDSGGPHATHYRGTWYLTGIVSWGQGCATVGHFGVYTRVSQYIEWLQKLMRSEPRPGVLLRAPFP
[4]
  FVIIa amidolytic activity (chromogenic substrate S2288, A405): stimulate FVIIa amidolytic activity in a concentration dependent manner indistinguishable from that induced by hTF.1-219
[5]
  FVIIa amidolytic activity (chromogenic substrate S2288, A405): Binding of hTF.1-219 to FVIIa increases the FVIIa catalytic activity
[6]
  FVIIa amidolytic activity (chromogenic substrate S2288, A405): similarly stimulate FVIIa activity in a concentration dependent manner identical to that of hTF.1-219

B4: Fab 0012-LC-L4a-hTF.1-219; VH-CH1-HPC4 (other)
light: DVVMTQTPLSLPVSLGDQASISCRSSQSLVHRNGNTYFHWCLQKPGQSPKLLIYKVSNRFSGVPDRFSGSGSGTDFTLKISRVEAEDLGVYFCSQSTHVPYTFGGGTKLEIKRTVAAPSVFIFPPSDEQLKSGTASVVCLLNNFYPREAKVQWKVDNALQSGNSQESVTEQDSKDSTYSLSSTLTLSKADYEKHKVYACEVTHQGLSSPVTKSFNRGECGSGGGGSGGGGSGGGGSSGTTNTVAAYNLTWKSTNFKTILEWEPKPVNQVYTVQISTKSGDWKSKCFYTTDTECDLTDEIVKDVKQTYLARVFSYPAGNVESTGSAGEPLYENSPEFTPYLETNLGQPTIQSFEQVGTKVNVTVEDERTLVRRNNTFLSLRDVFGKDLIYTLYYWKSSSSGKKTAKTNTNEFLIDVDKGENYCFSVQAVIPSRTVNRKSTDSPVECMGQEKGEFRE
heavy: EVKLLESGGGLVQPGGSLKLSCAASGFDFSRYWMTWVRQAPGKGLEWIGEINPDSSTINYTPSLKDKFIISRDNAKNTLYLQMSEVRSEDTALYYCASGVFTSWGQGTLVTVSAASTKGPSVFPLAPCSRSTSESTAALGCLVKDYFPEPVTVSWNSGALTSGVHTFPAVLQSSGLYSLSSVVTVPSSSLGTKTYTCNVDHKPSNTKVDKRVESKEDQVDPRLIDGK
[7]
  FX activation: response with resting platelets relative to activated platelets: 8 % of the response with activated platelets
[8]
  FVII-mediated FXa generation % Activity lipidated TLT-1: 97%

— US20120178908A1 (Novo Nordisk, published 2012)
